Target: T1, CD46 on human coloncarcinoma LS174T cells (human, UniProt P15529 35-392)
T1 construct: whole, on cells
T1 sequence (looked up): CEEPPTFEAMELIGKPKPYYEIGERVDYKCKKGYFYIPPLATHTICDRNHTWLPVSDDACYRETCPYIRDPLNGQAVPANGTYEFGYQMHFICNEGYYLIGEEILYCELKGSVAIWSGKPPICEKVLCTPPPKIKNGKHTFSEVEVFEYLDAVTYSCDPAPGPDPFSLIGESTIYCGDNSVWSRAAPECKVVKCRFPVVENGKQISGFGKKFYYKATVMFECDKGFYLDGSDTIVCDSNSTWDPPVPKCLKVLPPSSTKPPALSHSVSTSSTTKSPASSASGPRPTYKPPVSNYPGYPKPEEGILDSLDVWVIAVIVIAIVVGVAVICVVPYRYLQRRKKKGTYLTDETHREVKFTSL
Assay: FACS on LS174T cells preincubated with normal human serum; biotinylated antibody, streptavidin-PE; MFI
Description: Binding (MFI, ordinate) was determined by FACS after incubation with streptavidin-conjugated phycoerythrin.

B1: K53 IgG (antibody, V domains shown)
VH: QVQLVQSGAEVKKPGASVKVSCKASGYTFTSYGISWVRQAPGQGLEWMGWISAYNGNTNYAQKLQGRVTMTTDTSTSTAYMELRSLRSDDTAVYYCARGMMRGVFDYWGQGTLVTVST
VL: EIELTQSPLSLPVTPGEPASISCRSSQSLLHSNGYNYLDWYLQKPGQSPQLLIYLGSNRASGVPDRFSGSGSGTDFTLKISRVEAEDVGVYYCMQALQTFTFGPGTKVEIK
notes: also called clone K53; anti-CD46 clone K53
- EC50 (read off the curve): ~3 mg/L

— patent US20090263864A1 (CRUCELL HOLLAND B V, published 2009)
